The target of assay [1] is amyloid β1-42 peptide (Aβ1-42). The assay is described as follows: cell-based or functional assay.
Assay [2] has as its target T1, Aβ-derived diffusible ligands (synthetic ADDLs), soluble oligomers of amyloid β1-42.
T1 construct: number of copies varies (trimer, tetramer, 12-24 mer)
The assay is described as follows: solution equilibrium titration; free IgG by ELISA; GraFit. For orientation: An ELISA detects its analyte on a solid surface through an enzyme-linked reagent.

In assay [3] the target is T2, amyloid beta (1-40) peptide.
T2 construct: Residues 1-40 counted on the Aβ1-42 entry; used as monomer-like control; also called Aβ1-40; Aβ1-40 monomer
Described as above.

Assay [4] deals with ADDL fibril preparation (Aβ1-42 fibrils made in 10 mM hydrochloric acid). The description is as above.
For assay [5], the target named is T3, trimers of ADDLs (multi-dimensional conformation of soluble amyloid β1-42 oligomers, as defined by SDS-PAGE) (UniProt P05067 672-713).
T3 construct: domain: amyloid β1-42; It is a species within the ADDL preparation
The assay is described as follows: recognition of ADDL species defined by SDS-PAGE (see FIG. 3).

For assay [6], the target named is T4, tetramers of ADDLs (multi-dimensional conformation of soluble amyloid β1-42 oligomers, as defined by SDS-PAGE) (UniProt P05067 672-713).
T4 construct: domain: amyloid β1-42; It is a species within the ADDL preparation
Described as above.

Assay [7] concerns the target T5, SEC Peak 1 fraction of ADDLs (large aggregates, >50 kDa).
T5 construct: Size exclusion fraction of synthetic ADDLs; monomer, trimer, tetramer and 12-24 mers on SDS-PAGE
The assay is described as follows: sandwich ELISA with polyclonal M90 as capture antibody; signal on SEC Peak 1 divided by signal on SEC Peak 2 of ADDLs.

Assay [8] has as its target T6, higher molecular weight oligomers of the ADDL preparation.
T6 construct: also called higher molecular weight material (12-24 mer)
The assay is described as follows: western immunoblot of ADDLs after SDS-PAGE (column DENATURED SPECIES IDENTIFIED: HMW ADDLs). (Immunoblotting shows a protein as a band on a membrane.)

Consider two molecules from patent US20110159013A1 (MERCK, published 2011).

B1: murine anti-ADDL monoclonal antibody 2B4 (antibody, mouse IgG2b, V domains shown)
VH: not shown
VL: DVVMTQTPLSLPVSLGDQASISCRSSQSLVHSNGNTYLHWYLQKPGQSPKLLIYKVSNRFFGVPDRFSGSGSGTDFTLKISRVEAEDLGVYFCSQTTYVPLTFGAGTKLELK
In general, Kd refers to the constant that tells how readily two partners part at equilibrium. Low readings indicate a tighter complex, high ones a looser complex. On to B1, for which, in assay [1], the “IC50 (read off the curve)” value is about 100 nM. Besides, the equilibrium dissociation constant (Kd) was determined as 2.09 nM in assay [2], 27.6 nM in assay [3] and 10.5 nM in assay [4].

B2: murine anti-ADDL monoclonal antibody 2A10 (antibody, mouse IgG1, V domains shown)
VH: QVTLKESGPGILKPSQTLSLTCSFSGFSLSTSGMGVGWIRQPSGKGLEWLAHIWWDDDKYYNPSLKSQLTISKDTSRNQVFLKITSVDTADTATYYCARRSISTLVPEDYFDYWGQGTTLTVSS
VL: DVLMTQTPLSLPVSLGDQASISCRSSQSIVHSNGNTYLEWYLQKPGQSPKLLIYKVSNRFSGVPDRFSGSGSGTDFTLKISRVEAEDLGVYYCFQGSHVPLTFGAGTKLELK
For the molecule B2, the binding result in assay [5], in assay [6] and in assay [8] was “binds” each time. In addition, the “Peak 1/Peak 2 Ratio (ELISA)” value in assay [7] worked out at 20. In assay [4], this molecule registered a Kd of 6.72 nM.
